# Test results reported in paper PMC7554302, “The Reversible Non-covalent Aggregation Into Fibers of PGLa and Magainin 2 Preserves Their Antimicrobial Activity and Synergism” (Frontiers in Cellular and Infection Microbiology, 2020).
# Where no end group is shown, it is not given here.
# B1: magainin 2a (peptide)
# peptide: GIGKFLHSAKKFGKAFVGEIMNS-NH2
# notes: magainin 2, antimicrobial peptide of Xenopus laevis skin secretions, cut from the magainins precursor; Forms fibrils (many copies); source: synthetic peptide (solid-phase synthesis, Fmoc chemistry; reverse phase HPLC purified)
# Target: the molecule itself
# Test: transmission electron microscopy + FTIR; negative-stain TEM of the samples fibrillated in Mueller-Hinton medium; FTIR of fibril pellets prepared in 50 mM phosphate buffer pH 7.4
protein,measurement,value
B1,binding result,binds
